Experimental data published in paper PMC10762086, “Non-canonical interplay between glutamatergic NMDA and dopamine receptors shapes synaptogenesis” (Nature Communications, 2024).

Target: GluN1 subunit-containing NMDAR (GluN1-NMDAR), tagged GluN1 expressed at the surface of hippocampal neurons (UniProt P35439 19-938, Only the defined, expressed GluN1 subunit is built: it carries the D1R interaction through its C1 cassette. The canonical 938-aa form is taken as the C1-containing GluN1-1a; the exact splice form is n)
Experiment: multidimensional spectral single molecule localization microscopy (MS-SMLM; two-colour quantum-dot single-particle tracking); live cultured hippocampal neurons (immature DIV 7-9; mature DIV 15 and above), surface receptors labelled by antibodies against extracellular tags and Qd-655 / Qd-705; 1000 frames of 50 ms (20 Hz), 37 °C; receptors counted as interacting when their distance fell below 100 nm; Koff estimated …
Settings: partners not purified

- koff: 13 ± 0.7 s⁻¹
B1: dopamine receptor 1 wild-type (D1R-wt), extracellularly tagged, expressed in hippocampal neurons (receptor, UniProt P18901 1-446, looked up)
chain: MAPNTSTMDEAGLPAERDFSFRILTACFLSLLILSTLLGNTLVCAAVIRFRHLRSKVTNFFVISLAVSDLLVAVLVMPWKAVAEIAGFWPLGPFCNIWVAFDIMCSTASILNLCVISVDRYWAISSPFQYERKMTPKAAFILISVAWTLSVLISFIPVQLSWHKAKPTWPLDGNFTSLEDTEDDNCDTRLSRTYAISSSLISFYIPVAIMIVTYTSIYRIAQKQIRRISALERAAVHAKNCQTTAGNGNPVECAQSESSFKMSFKRETKVLKTLSVIMGVFVCCWLPFFISNCMVPFCGSEETQPFCIDSITFDVFVWFGWANSSLNPIIYAFNADFQKAFSTLLGCYRLCPTTNNAIETVSINNNGAVVFSSHHEPRGSISKDCNLVYLIPHAVGSSEDLKKEEAGGIAKPLEKLSPALSVILDYDTDVSLEKIQPVTHSGQHST
notes: dopamine D1 receptor; also called dopamine D1 receptor; source: cultured rat hippocampal neurons, transfected (calcium phosphate), on live cells; not shown: extracellular tag (GFP or Flag)
